Experimental data reported in paper PMC9482650, “Quantitative fragmentomics allow affinity mapping of interactomes” (Nature Communications, 2022).
Changes are numbered by the printed parent chain.

T1: APBA2_2, Q99767
T1 sequence (Q99767 654-744, limits assumed, looked up): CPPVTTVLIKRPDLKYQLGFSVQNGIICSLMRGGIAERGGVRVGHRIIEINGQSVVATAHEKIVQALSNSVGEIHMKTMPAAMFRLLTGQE

T2: SNTG2, Q9NY99
T2 sequence (Q9NY99 68-166, limits assumed, looked up): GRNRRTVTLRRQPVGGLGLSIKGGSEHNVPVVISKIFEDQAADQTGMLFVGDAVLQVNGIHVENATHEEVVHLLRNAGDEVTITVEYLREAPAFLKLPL

T3: PDZD2_2, O15018
T3 sequence (O15018 329-429, limits assumed, looked up): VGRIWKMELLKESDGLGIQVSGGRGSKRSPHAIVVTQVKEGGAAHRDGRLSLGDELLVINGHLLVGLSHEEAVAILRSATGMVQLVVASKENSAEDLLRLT

T4: HTRA4, P83105
T4 sequence (P83105 378-476, limits assumed, looked up): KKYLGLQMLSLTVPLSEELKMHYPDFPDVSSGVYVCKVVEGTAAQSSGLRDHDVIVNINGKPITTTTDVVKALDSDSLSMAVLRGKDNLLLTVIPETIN

T5: ARHGAP21, Q5T5U3
T5 sequence (Q5T5U3 45-169, limits assumed, looked up): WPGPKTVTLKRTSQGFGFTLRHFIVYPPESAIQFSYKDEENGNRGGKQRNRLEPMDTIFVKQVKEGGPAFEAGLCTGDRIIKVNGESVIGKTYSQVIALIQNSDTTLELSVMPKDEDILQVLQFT

T6: LNX2_3, Q8N448
T6 sequence (Q8N448 463-564, limits assumed, looked up): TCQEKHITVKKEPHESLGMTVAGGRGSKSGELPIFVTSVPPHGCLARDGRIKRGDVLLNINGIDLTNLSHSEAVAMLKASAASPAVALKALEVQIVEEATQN

T7: PDZRN3_1, Q9UPQ7
T7 sequence (Q9UPQ7 244-349, limits assumed, looked up): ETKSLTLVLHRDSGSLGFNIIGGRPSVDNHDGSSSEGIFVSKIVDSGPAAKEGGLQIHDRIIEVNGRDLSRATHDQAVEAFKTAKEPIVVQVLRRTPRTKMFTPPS

T8: LIN7C, Q9NUP9
T8 sequence (Q9NUP9 88-185, limits assumed, looked up): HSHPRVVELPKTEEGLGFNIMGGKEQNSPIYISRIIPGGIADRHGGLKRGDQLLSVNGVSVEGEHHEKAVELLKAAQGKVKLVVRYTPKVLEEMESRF

T9: LIN7B, Q9HAP6
T9 sequence (Q9HAP6 88-185, limits assumed, looked up): T8 sequence (Q9NUP9 88-185, limits assumed, looked up) with S2A, E13D, I35V, I40V, H65Q, K79S, K89R, S96A

T10: GRIP1_4, Q9Y3R0
T10 sequence (Q9Y3R0 467-571, limits assumed, looked up): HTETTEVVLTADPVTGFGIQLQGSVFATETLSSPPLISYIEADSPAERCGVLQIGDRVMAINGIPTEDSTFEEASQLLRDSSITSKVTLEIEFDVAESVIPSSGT

T11: NHERF3_4, Q5T2W1
T11 sequence (Q5T2W1 373-468, limits assumed, looked up): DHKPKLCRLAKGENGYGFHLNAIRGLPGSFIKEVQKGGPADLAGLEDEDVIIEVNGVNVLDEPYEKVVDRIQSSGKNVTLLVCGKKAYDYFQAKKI

T12: SNTB1, Q13884
T12 sequence (Q13884 107-205, limits assumed, looked up): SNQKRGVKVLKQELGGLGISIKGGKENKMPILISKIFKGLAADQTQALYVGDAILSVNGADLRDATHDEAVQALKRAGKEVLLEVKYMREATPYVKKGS

B1: SDC4, P31431 (peptide)
chain: KKAPTNEFYA
B2: CLDN2, P57739 (peptide)
chain: FNSYSLTGYV
B3: ACOT8, O14734 (peptide)
chain: VKPQVSESKL
B4: PDGFRB, P09619 (peptide)
chain: PRAEAEDSFL

These binders were tested against T1, APBA2_2, Q99767 (assay: holdup assay). Details: plain residues with an end cap or a label only (N-terminal biotin on a linker: ado-ado).
Set-up: key: below the threshold = too weak to quantify, mostly under pKd 3.1 to 4

pKd	Binder
below the threshold	B1
below the threshold	B2
below the threshold	B3
below the threshold	B4

The binders below were run against FRMPD2_1, Q68DX3 (assay: holdup assay). Details: plain residues with an end cap or a label only (N-terminal biotin on a linker: ado-ado).
Sequence of FRMPD2_1, Q68DX3 (Q68DX3 770-861): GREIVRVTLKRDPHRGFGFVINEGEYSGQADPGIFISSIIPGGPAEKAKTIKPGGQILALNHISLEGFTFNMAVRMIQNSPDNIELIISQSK
Set-up: key: below the threshold = too weak to quantify, mostly under pKd 3.1 to 4

pKd	Binder
3.51	B1
3.49	B2
below the threshold	B3
below the threshold	B4

The binders below were run against T2, SNTG2, Q9NY99 (assay: holdup assay). Details: plain residues with an end cap or a label only (N-terminal biotin on a linker: ado-ado).
Set-up: key: below the threshold = too weak to quantify, mostly under pKd 3.1 to 4

pKd	Binder
below the threshold	B1
below the threshold	B2
4.19	B3
below the threshold	B4

Each binder was assayed against TJP1_3, Q07157 (assay: holdup assay). Details: plain residues with an end cap or a label only (N-terminal biotin on a linker: ado-ado).
Sequence of TJP1_3, Q07157 (Q07157 416-512): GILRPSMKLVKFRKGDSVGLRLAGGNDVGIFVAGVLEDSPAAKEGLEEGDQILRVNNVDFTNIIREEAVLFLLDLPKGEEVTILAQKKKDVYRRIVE
Set-up: key: below the threshold = too weak to quantify, mostly under pKd 3.1 to 4

pKd	Binder
below the threshold	B1
3.63	B2
below the threshold	B3
below the threshold	B4

The binders below were run against LNX1_3, Q8TBB1 (assay: holdup assay). Details: plain residues with an end cap or a label only (N-terminal biotin on a linker: ado-ado).
Sequence of LNX1_3, Q8TBB1 (Q8TBB1 500-596): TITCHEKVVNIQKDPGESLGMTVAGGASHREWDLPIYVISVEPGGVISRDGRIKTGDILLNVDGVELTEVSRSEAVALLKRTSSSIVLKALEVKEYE
Set-up: key: below the threshold = too weak to quantify, mostly under pKd 3.1 to 4

pKd	Binder
below the threshold	B1
below the threshold	B2
below the threshold	B3
below the threshold	B4

The binders below were run against T3, PDZD2_2, O15018 (assay: holdup assay). Details: plain residues with an end cap or a label only (N-terminal biotin on a linker: ado-ado).
Set-up: key: below the threshold = too weak to quantify, mostly under pKd 3.1 to 4

pKd	Binder
below the threshold	B1
4.65	B2
below the threshold	B3
4.43	B4

Each binder was assayed against IL16_4, Q14005 (assay: holdup assay). Details: plain residues with an end cap or a label only (N-terminal biotin on a linker: ado-ado).
Sequence of IL16_4, Q14005 (Q14005 1229-1329): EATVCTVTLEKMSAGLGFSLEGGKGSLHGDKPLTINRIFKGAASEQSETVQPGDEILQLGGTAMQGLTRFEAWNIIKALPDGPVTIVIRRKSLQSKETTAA
Set-up: key: below the threshold = too weak to quantify, mostly under pKd 3.1 to 4

pKd	Binder
below the threshold	B1
below the threshold	B2
below the threshold	B3
below the threshold	B4

Each binder was assayed against SCRIB_2, Q14160 (assay: holdup assay). Details: plain residues with an end cap or a label only (N-terminal biotin on a linker: ado-ado).
Sequence of SCRIB_2, Q14160 (Q14160 857-960): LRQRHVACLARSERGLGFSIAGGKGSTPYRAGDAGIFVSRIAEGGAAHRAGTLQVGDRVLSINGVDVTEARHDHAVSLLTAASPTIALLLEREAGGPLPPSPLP
Set-up: key: below the threshold = too weak to quantify, mostly under pKd 3.1 to 4

pKd	Binder
below the threshold	B1
below the threshold	B2
3.52	B3
below the threshold	B4

These binders were tested against DLG1_2, Q12959 (assay: holdup assay). Details: plain residues with an end cap or a label only (N-terminal biotin on a linker: ado-ado).
Sequence of DLG1_2, Q12959 (Q12959 314-412): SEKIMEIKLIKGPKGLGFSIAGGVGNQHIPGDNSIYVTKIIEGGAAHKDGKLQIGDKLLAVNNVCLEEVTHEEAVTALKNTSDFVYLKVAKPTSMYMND
Set-up: key: below the threshold = too weak to quantify, mostly under pKd 3.1 to 4

pKd	Binder
below the threshold	B1
3.49	B2
below the threshold	B3
3.57	B4

What follows are binders tested against T4, HTRA4, P83105 (assay: holdup assay). Details: plain residues with an end cap or a label only (N-terminal biotin on a linker: ado-ado).
Set-up: key: below the threshold = too weak to quantify, mostly under pKd 3.1 to 4

pKd	Binder
below the threshold	B1
4.08	B2
below the threshold	B3
3.98	B4

Each binder was assayed against T5, ARHGAP21, Q5T5U3 (assay: holdup assay). Details: plain residues with an end cap or a label only (N-terminal biotin on a linker: ado-ado).
Set-up: key: below the threshold = too weak to quantify, mostly under pKd 3.1 to 4

pKd	Binder
below the threshold	B1
3.94	B2
below the threshold	B3
4	B4

What follows are binders tested against LNX1_2, Q8TBB1 (assay: holdup assay). Details: plain residues with an end cap or a label only (N-terminal biotin on a linker: ado-ado).
Sequence of LNX1_2, Q8TBB1 (Q8TBB1 371-470): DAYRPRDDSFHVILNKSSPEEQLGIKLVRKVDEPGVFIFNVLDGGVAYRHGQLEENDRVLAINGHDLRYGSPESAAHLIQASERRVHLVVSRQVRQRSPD
Set-up: key: below the threshold = too weak to quantify, mostly under pKd 3.1 to 4

pKd	Binder
below the threshold	B1
4.19	B2
below the threshold	B3
below the threshold	B4

The binders below were run against Inadl_3, Q8NI35 (assay: holdup assay). Details: plain residues with an end cap or a label only (N-terminal biotin on a linker: ado-ado).
Sequence of Inadl_3, Q8NI35 (Q8NI35 359-469): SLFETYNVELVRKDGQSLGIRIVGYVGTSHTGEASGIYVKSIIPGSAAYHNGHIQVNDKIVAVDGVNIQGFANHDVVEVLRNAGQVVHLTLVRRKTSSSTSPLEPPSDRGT
Set-up: key: below the threshold = too weak to quantify, mostly under pKd 3.1 to 4

pKd	Binder
below the threshold	B1
3.57	B2
below the threshold	B3
below the threshold	B4

What follows are binders tested against T6, LNX2_3, Q8N448 (assay: holdup assay). Details: plain residues with an end cap or a label only (N-terminal biotin on a linker: ado-ado).
Set-up: key: below the threshold = too weak to quantify, mostly under pKd 3.1 to 4

pKd	Binder
below the threshold	B1
below the threshold	B2
below the threshold	B3
3.54	B4

The binders below were run against T7, PDZRN3_1, Q9UPQ7 (assay: holdup assay). Details: plain residues with an end cap or a label only (N-terminal biotin on a linker: ado-ado).
Set-up: key: below the threshold = too weak to quantify, mostly under pKd 3.1 to 4

pKd	Binder
below the threshold	B1
below the threshold	B2
3.68	B3
3.7	B4

The binders below were run against DLG1_3, Q12959 (assay: holdup assay). Details: plain residues with an end cap or a label only (N-terminal biotin on a linker: ado-ado).
Sequence of DLG1_3, Q12959 (Q12959 457-571): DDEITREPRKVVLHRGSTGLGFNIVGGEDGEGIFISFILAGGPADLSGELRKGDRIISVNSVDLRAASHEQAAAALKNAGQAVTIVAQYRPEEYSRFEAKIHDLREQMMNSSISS
Set-up: key: below the threshold = too weak to quantify, mostly under pKd 3.1 to 4

pKd	Binder
below the threshold	B1
below the threshold	B2
below the threshold	B3
3.54	B4

These binders were tested against T8, LIN7C, Q9NUP9 (assay: holdup assay). Details: plain residues with an end cap or a label only (N-terminal biotin on a linker: ado-ado).
Set-up: key: below the threshold = too weak to quantify, mostly under pKd 3.1 to 4

pKd	Binder
3.78	B1
below the threshold	B2
below the threshold	B3
below the threshold	B4

These binders were tested against MAGI2_4, Q86UL8 (assay: holdup assay). Details: plain residues with an end cap or a label only (N-terminal biotin on a linker: ado-ado).
Sequence of MAGI2_4, Q86UL8 (Q86UL8 772-865): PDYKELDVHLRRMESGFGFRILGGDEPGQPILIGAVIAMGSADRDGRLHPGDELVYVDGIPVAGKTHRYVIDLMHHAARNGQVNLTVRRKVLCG
Set-up: key: below the threshold = too weak to quantify, mostly under pKd 3.1 to 4

pKd	Binder
below the threshold	B1
4.24	B2
below the threshold	B3
3.6	B4

What follows are binders tested against T9, LIN7B, Q9HAP6 (assay: holdup assay). Details: plain residues with an end cap or a label only (N-terminal biotin on a linker: ado-ado).
Set-up: key: below the threshold = too weak to quantify, mostly under pKd 3.1 to 4

pKd	Binder
3.74	B1
below the threshold	B2
3.59	B3
below the threshold	B4

Each binder was assayed against T10, GRIP1_4, Q9Y3R0 (assay: holdup assay). Details: plain residues with an end cap or a label only (N-terminal biotin on a linker: ado-ado).
Set-up: key: below the threshold = too weak to quantify, mostly under pKd 3.1 to 4

pKd	Binder
below the threshold	B1
below the threshold	B2
below the threshold	B3
below the threshold	B4

What follows are binders tested against T11, NHERF3_4, Q5T2W1 (assay: holdup assay). Details: plain residues with an end cap or a label only (N-terminal biotin on a linker: ado-ado).
Set-up: key: below the threshold = too weak to quantify, mostly under pKd 3.1 to 4

pKd	Binder
below the threshold	B1
below the threshold	B2
below the threshold	B3
below the threshold	B4

Each binder was assayed against T12, SNTB1, Q13884 (assay: holdup assay). Details: plain residues with an end cap or a label only (N-terminal biotin on a linker: ado-ado).
Set-up: key: below the threshold = too weak to quantify, mostly under pKd 3.1 to 4

pKd	Binder
below the threshold	B1
3.61	B2
3.85	B3
3.64	B4

The binders below were run against DLG4_3, P78352 (assay: holdup assay). Details: plain residues with an end cap or a label only (N-terminal biotin on a linker: ado-ado).
Sequence of DLG4_3, P78352 (P78352 306-403): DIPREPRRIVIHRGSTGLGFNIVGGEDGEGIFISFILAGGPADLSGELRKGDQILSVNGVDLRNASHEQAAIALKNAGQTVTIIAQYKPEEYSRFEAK
Set-up: key: below the threshold = too weak to quantify, mostly under pKd 3.1 to 4

pKd	Binder
below the threshold	B1
below the threshold	B2
below the threshold	B3
below the threshold	B4

Each binder was assayed against Inadl_6, Q8NI35 (assay: holdup assay). Details: plain residues with an end cap or a label only (N-terminal biotin on a linker: ado-ado).
Sequence of Inadl_6, Q8NI35 (Q8NI35 1058-1167): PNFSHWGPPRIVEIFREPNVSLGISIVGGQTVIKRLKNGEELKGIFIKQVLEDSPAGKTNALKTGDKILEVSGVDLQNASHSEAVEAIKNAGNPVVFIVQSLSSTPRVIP
Set-up: key: below the threshold = too weak to quantify, mostly under pKd 3.1 to 4

pKd	Binder
below the threshold	B1
below the threshold	B2
below the threshold	B3
3.81	B4

The binders below were run against LAP2, Q96RT1 (assay: holdup assay). Details: plain residues with an end cap or a label only (N-terminal biotin on a linker: ado-ado).
Sequence of LAP2, Q96RT1 (Q96RT1 other isoform, or with tags, fused parts or gaps): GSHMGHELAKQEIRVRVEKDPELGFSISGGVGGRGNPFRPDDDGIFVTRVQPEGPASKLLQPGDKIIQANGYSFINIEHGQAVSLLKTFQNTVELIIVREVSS
Set-up: key: below the threshold = too weak to quantify, mostly under pKd 3.1 to 4

pKd	Binder
below the threshold	B1
below the threshold	B2
below the threshold	B3
3.53	B4
